We go through 14 molecules from patent publication US20230374150A1 (Memorial Sloan Kettering, published 2023).

Residue numbers refer to the chain shown, from its start.

First the molecules themselves.
B1: murine J591 (antibody, V domains shown)
VH: EVQLQQSGPELVKPGTSVRISCKTSGYTFTEYTIHWVKQSHGKSLEWIGNINPNNGGTTYNQKFEDKATLTVDKSSSTAYMELRSLTSEDSAVYYCAAGWNFDYWGQGTTLTVSS
VL: DIVMTQSHKFMSTSVGDRVSIICKASQDVGTAVDWYQQKPGQSPKLLIYWASTRHTGVPDRFTGSGSGTDFTLTITNVQSEDLADYFCQQYNSYPLTFGAGTMLDLKR
notes: also called original mouse antibody J591; mouse J591
B2: huJ591 (J591_VH-2 + J591_VL-1) (antibody, human IgG1, V domains shown)
VH: QVQLVQSGAEVKKPGASVKVSCKASGYTFTEYTMHWVRQAPGQGLEWMGNINPNNGGTTYNQKFQGRVTMTVDKSISTAYMELSRLRSDDTAVYYCAAGWNFDYWGQGTLVTVSS
VL: DIQLTQSPSFLSASVGDRVTITCRASQDVGTALDWYQQKPGKAPKLLIYWASTLHSGVPSRFSGSGSGTEFTLTISSLQPEDFATYYCQQYNSYPLTFGQGTKLEIK
notes: One of the 9 huJ591 versions; Human IgG1 frameworks
B3: huJ591 clone having combination of J591_VL-1 and J591_VH-3 (antibody, V domains shown)
VH: B2 VH with G44R, N61S, M70I, I76A, R85S, D89E
VL: DIQLTQSPSFLSASVGDRVTITCRASQDVGTALDWYQQKPGKAPKLLIYWASTLHSGVPSRFSGSGSGTEFTLTISSLQPEDFATYYCQQYNSYPLTFGQGTKLEIKR
notes: also called the select clone
B4: huJ591 (J591_VH-3 + J591_VL-3) (antibody, human IgG1, V domains shown)
VH: B2 VH with G44R, N61S, M70I, I76A, R85S, D89E
VL: B2 VL with Q3V, L4M, F10S, K45E, T53S, S63R, E70D, L78V
notes: as for B2
B5: huJ591 (J591_VH-1 + J591_VL-2) (antibody, human IgG1, V domains shown)
VH: B2 VH with N61A, V72R
VL: B2 VL with L54R
notes: as for B2
B6: huJ591 (J591_VH-1 + J591_VL-1) (antibody, human IgG1, V domains shown)
VH: B2 VH with N61A, V72R
VL: B2 VL
notes: One of the 9 huJ591 versions made from three heavy and three light chain designs; Human IgG1 frameworks, expressed in CHO cells
B7: huJ591 (J591_VH-2 + J591_VL-3) (antibody, human IgG1, V domains shown)
VH: B2 VH
VL: B2 VL with Q3V, L4M, F10S, K45E, T53S, S63R, E70D, L78V
notes: as for B2
B8: huJ591 (J591_VH-1 + J591_VL-3) (antibody, human IgG1, V domains shown)
VH: B2 VH with N61A, V72R
VL: B2 VL with Q3V, L4M, F10S, K45E, T53S, S63R, E70D, L78V
notes: as for B2
B9: huJ591 (J591_VH-3 + J591_VL-2) (antibody, human IgG1, V domains shown)
VH: B2 VH with G44R, N61S, M70I, I76A, R85S, D89E
VL: B2 VL with L54R
notes: as for B2
B10: huJ591 (J591_VH-2 + J591_VL-2) (antibody, human IgG1, V domains shown)
VH: B2 VH
VL: B2 VL with L54R
notes: as for B2
B11: anti-PSMAxhuC825 clone BC192 (PSMA LALA) (bispecific antibody, human IgG1, kappa, L234A L235A)
light: DIQLTQSPSFLSASVGDRVTITCRASQDVGTALDWYQQKPGKAPKLLIYWASTLHSGVPSRFSGSGSGTEFTLTISSLQPEDFATYYCQQYNSYPLTFGQGTKLEIKRTVAAPSVFIFPPSDEQLKSGTASVVCLLNNFYPREAKVQWKVDNALQSGNSQESVTEQDSKDSTYSLSSTLTLSKADYEKHKVYACEVTHQGLSSPVTKSFNRGECTSGGGGSGGGGSGGGGSHVQLVESGGGLVQPGGSLRLSCAASGFSLTDYGVHWVRQAPGKGLEWLGVIWSGGGTAYNTALISRFTISRDNSKNTLYLQMNSLRAEDTAVYYCARRGSYPYNYFDAWGCGTLVTVSSGGGGSGGGGSGGGGSGGGGSGGGGSGGGGSQAVVTQEPSLTVSPGGTVTLTCGSSTGAVTASNYANWVQQKPGQCPRGLIGGHNNRPPGVPARFSGSLLGGKAALTLLGAQPEDEAEYYCALWYSDHWVIGGGTKLTVLG
heavy: not shown
B12: humanized anti-PSMAxCD3 BsAb BC243 (H2L3) (bispecific antibody, human IgG1, kappa, N297A)
light: DIVMTQSPSSLSASVGDRVTITCRASQDVGTALDWYQQKPGKAPELLIYWASSLHSGVPSRFRGSGSGTDFTLTISSVQPEDFATYYCQQYNSYPLTFGQGTKLEIKRTVAAPSVFIFPPSDEQLKSGTASVVCLLNNFYPREAKVQWKVDNALQSGNSQESVTEQDSKDSTYSLSSTLTLSKADYEKHKVYACEVTHQGLSSPVTKSFNRGECTSGGGGSGGGGSGGGGSQVQLVQSGGGVVQPGRSLRLSCKASGYTFTRYTMHWVRQAPGKCLEWIGYINPSRGYTNYNQKFKDRFTISRDNSKNTAFLQMDSLRPEDTGVYFCARYYDDHYSLDYWGQGTPVTVSSGGGGSGGGGSGGGGSGGGGSGGGGSGGGGSDIQMTQSPSSLSASVGDRVTITCSASSSVSYMNWYQQTPGKAPKRWIYDTSKLASGVPSRFSGSGSGTDYTFTISSLQPEDIATYYCQQWSSNPFTFGCGTKLQITR
heavy: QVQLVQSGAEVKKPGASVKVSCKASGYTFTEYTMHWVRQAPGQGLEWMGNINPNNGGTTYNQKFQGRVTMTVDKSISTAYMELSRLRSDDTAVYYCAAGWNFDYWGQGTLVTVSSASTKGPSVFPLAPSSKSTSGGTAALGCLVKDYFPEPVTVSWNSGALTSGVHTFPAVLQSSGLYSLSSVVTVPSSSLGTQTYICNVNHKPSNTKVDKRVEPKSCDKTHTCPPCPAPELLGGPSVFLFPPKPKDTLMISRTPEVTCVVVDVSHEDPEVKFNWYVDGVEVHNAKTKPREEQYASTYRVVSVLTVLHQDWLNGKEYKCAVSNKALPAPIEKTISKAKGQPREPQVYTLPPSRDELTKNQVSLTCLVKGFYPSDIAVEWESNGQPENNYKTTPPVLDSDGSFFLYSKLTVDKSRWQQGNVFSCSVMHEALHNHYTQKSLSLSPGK
notes: IgG(L)-scFv format, J591_VL-3 + J591_VH-2
B13: humanized anti-PSMAxCD3 BsAb BC244a (H2L1) (bispecific antibody, human IgG1, kappa, N297A)
light: B12 light with V3Q, M4L, S10F, E45K, S53T, R63S, D70E, V78L
heavy: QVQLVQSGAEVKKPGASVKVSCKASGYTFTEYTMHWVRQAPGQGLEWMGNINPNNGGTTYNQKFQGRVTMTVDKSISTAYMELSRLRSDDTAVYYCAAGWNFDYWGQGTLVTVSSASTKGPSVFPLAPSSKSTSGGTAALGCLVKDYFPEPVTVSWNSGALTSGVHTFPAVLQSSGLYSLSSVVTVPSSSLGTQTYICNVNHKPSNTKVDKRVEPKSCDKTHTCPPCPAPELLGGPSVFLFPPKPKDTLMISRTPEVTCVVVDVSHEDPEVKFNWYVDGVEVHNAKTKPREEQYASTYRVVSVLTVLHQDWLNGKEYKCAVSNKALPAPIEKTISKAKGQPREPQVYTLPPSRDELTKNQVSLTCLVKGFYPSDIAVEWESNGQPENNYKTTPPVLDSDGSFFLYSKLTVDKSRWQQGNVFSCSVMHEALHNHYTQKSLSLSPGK
notes: IgG(L)-scFv format
B14: humanized anti-PSMAxCD3 BsAb BC245 (H3L3) (bispecific antibody, human IgG1, kappa, N297A)
light: B12 light
heavy: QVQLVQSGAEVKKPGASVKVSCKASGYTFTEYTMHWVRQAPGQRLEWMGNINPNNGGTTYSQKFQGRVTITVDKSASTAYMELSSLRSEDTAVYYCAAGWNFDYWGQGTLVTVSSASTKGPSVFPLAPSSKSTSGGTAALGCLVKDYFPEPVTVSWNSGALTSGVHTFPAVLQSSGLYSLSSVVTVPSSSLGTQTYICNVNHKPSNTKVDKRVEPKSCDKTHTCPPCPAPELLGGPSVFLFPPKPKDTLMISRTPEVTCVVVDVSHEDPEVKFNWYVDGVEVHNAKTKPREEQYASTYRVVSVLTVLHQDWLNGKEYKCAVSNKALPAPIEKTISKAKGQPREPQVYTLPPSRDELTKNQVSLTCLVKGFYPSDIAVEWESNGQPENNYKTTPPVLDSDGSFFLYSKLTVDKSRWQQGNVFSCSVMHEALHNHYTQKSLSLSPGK
notes: IgG(L)-scFv format, J591_VL-3 + J591_VH-3

T1 sequence (Q04609 44-750 limits assumed): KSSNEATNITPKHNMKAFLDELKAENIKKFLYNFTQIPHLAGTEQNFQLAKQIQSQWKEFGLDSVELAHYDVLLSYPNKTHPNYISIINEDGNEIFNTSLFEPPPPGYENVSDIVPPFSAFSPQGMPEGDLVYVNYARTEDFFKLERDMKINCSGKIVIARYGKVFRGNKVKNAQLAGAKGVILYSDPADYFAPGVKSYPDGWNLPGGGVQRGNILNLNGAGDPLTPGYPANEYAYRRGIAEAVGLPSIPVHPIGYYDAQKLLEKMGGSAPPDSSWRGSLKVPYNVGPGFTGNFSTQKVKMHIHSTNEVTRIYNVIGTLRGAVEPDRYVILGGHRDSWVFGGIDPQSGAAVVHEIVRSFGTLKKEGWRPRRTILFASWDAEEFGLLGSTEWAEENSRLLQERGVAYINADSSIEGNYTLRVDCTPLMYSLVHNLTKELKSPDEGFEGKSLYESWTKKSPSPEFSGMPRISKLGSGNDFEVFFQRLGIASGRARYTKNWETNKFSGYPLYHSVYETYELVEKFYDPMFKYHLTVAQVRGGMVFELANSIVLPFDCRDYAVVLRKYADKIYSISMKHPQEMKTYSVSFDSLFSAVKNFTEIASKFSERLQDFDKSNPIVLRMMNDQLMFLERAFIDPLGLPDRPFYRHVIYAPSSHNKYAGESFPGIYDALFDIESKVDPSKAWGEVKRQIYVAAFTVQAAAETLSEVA

The first experiment has as its target T1, Human PSMA antigen (human, UniProt Q04609 44-750, limits assumed).
T1 construct: This is the antigen immobilised on the Biacore chip; also called FOLH1_HUMAN
The experiment is described as follows: SPR (Biacore), 37 C, antibody over immobilized PSMA. From the text: The calculated kinetic parameters derived from SPR are shown in FIG. 4C, showing distinct differences in affinities when compared to the chimeric and the original mouse antibody J591. Increased affinity of anti-PSMA antibodies should translate into higher potency, while lower affinity anti-PSMA antibodies into lower toxicity. This affinity modulation is achieved without altering the CDR sequences. Based on the binding kinetics, the clone having combination of J591_VL-1 and J591_VH-3, which has near identical binding kinetics to those of J591 chimeric antibody, was chosen to build the PSMA-BsAb (BC244) of the present technology. The amino acid sequences of the light chain (SEQ ID NO: 11) and the heavy chain (SEQ ID NO: 12) of the select clone are shown in FIG. 12. Mutation N297A was used to remove glycosylation, and K322A to minimize complement activation.
On to B1, for which the dissociation constant (Kd) (as a rule, the constant that tells how readily two partners part at equilibrium) came to 6.39 nM; the “fold-change KD relative to chimeric” value was 31 fold; the off-rate constant (koff) (as a rule, a measure of how fast the partners let go of each other) came to 0.000113 s⁻¹; the kon (in general, a measure of how fast the partners come together) turned out to be 17700 M⁻¹ s⁻¹.

As to B2, the Kd came out at 3.54 nM, the “fold-change KD relative to chimeric” value was determined as 17.2 fold, the off-rate (koff) amounted to 0.000176 s⁻¹ and the kon is 49700 M⁻¹ s⁻¹.

Consider B3, for which the Kd turned out to be 1.67 nM, the “fold-change KD relative to chimeric” value worked out at 8.1 fold, the koff came to 9.69e-05 s⁻¹ and the kon stood at 58200 M⁻¹ s⁻¹.

Turning to B4, the Kd was determined as 11.9 nM, the “fold-change KD relative to chimeric” value came out at 57.8 fold, the koff was determined as 0.00057 s⁻¹ and the kon is 47900 M⁻¹ s⁻¹.

Turning to B5, the dissociation constant Kd stood at 4.86 nM, the “fold-change KD relative to chimeric” value is 23.6 fold, the koff was 0.000379 s⁻¹ and the kon is 77900 M⁻¹ s⁻¹.

On to B6, for which the Kd amounted to 3.32 nM, the “fold-change KD relative to chimeric” value amounted to 16.1 fold, the koff was found to be 0.000228 s⁻¹ and the kon turned out to be 68600 M⁻¹ s⁻¹.

As to B7, the Kd stood at 3.48 nM, the “fold-change KD relative to chimeric” value worked out at 16.9 fold, the koff worked out at 0.000211 s⁻¹ and the kon came to 60600 M⁻¹ s⁻¹.

On to B8, for which the Kd was 3.55 nM, the “fold-change KD relative to chimeric” value stood at 17.2 fold, the koff came out at 0.000285 s⁻¹ and the kon came out at 80500 M⁻¹ s⁻¹.

In the case of B9, the Kd is 2.54 nM, the “fold-change KD relative to chimeric” value turned out to be 12.3 fold, the koff stood at 0.000146 s⁻¹ and the kon is 57400 M⁻¹ s⁻¹.

With B10, the Kd turned out to be 4.81 nM, the “fold-change KD relative to chimeric” value was found to be 23.3 fold, the koff worked out at 0.000286 s⁻¹ and the kon came to 59400 M⁻¹ s⁻¹.

The target of the next experiment is T1, Human PSMA antigen. Nature of the experiment: SPR Biacore, immobilised human PSMA, 37 C, 1:1 fit. The procedure: (§1) PSMA-BsAb Biacore Settings. Human PSMA antigen was immobilized directly on Fc2 at 3000 RU, and cynomolgus PSMA (ACRO) on Fc4 at 3000 RU (Blank on Fc1 and Fc3 as controls). Abs were run through the system at 37° C., at concentrations of 250 and 500 nM, with association time 1 min, dissociation time 15 min. Regeneration was performed at 30 mM NaOH. All data were fitted with 1:1 model.
In general terms: SPR reads the build-up and loss of mass on a sensor chip optically.
As for B11, binding was characterised by a dissociation constant (Kd) of 2.9 nM, the koff came to 0.000279 s⁻¹, the kon was 96200 M⁻¹ s⁻¹ and the “t ½” value is 41.3 min.

Regarding B12, the Kd worked out at 1.6 nM, the koff is 0.000308 s⁻¹, the kon came out at 192000 M⁻¹ s⁻¹ and the “t ½” value came out at 37.5 min.

Regarding B13, the Kd stood at 2.91 nM, the koff amounted to 0.000444 s⁻¹, the kon is 152000 M⁻¹ s⁻¹ and the “t ½” value came to 26 min.

As for B14, binding was characterised by a dissociation constant (Kd) of 1.06 nM, the koff came out at 0.000159 s⁻¹, the kon turned out to be 150000 M⁻¹ s⁻¹ and the “t ½” value was determined as 72.7 min.

For a further experiment, the target named is T2, cynomolgus PSMA (ACRO) (cynomolgus, UniProt A0A2K5VNZ0 44-750).
T2 construct: Immobilised on the Biacore chip
The experiment is described as follows: SPR Biacore, immobilised cynomolgus PSMA, 37 C, 1:1 fit. The procedure: as §1
With B11, the affinity, expressed as Kd, was 8.75 nM; the koff stood at 0.000459 s⁻¹; the kon amounted to 52500 M⁻¹ s⁻¹; the “t ½” value stood at 25.2 min.

For the molecule B12, the Kd is 3.58 nM, the koff is 0.000634 s⁻¹, the kon turned out to be 177000 M⁻¹ s⁻¹ and the “t ½” value is 18.2 min.

B13: the Kd worked out at 6.67 nM, the dissociation rate constant (koff) was 0.000781 s⁻¹, the kon came to 117000 M⁻¹ s⁻¹ and the “t ½” value stood at 14.8 min.

For the molecule B14, the Kd came to 2.49 nM, the koff is 0.000324 s⁻¹, the kon is 130000 M⁻¹ s⁻¹ and the “t ½” value amounted to 35.7 min.
